{"source": "patent US20230235013A1", "about": "(MABSOLVE, published 2023)", "key": {"human FcγRIIIA (F158) [1]": {"molecular_target": "T1, human FcγRIIIA (F158) (human, UniProt P08637 17-208)", "T1 construct": "bought; F158 allele", "T1 sequence (P08637 17-208 limits assumed)": "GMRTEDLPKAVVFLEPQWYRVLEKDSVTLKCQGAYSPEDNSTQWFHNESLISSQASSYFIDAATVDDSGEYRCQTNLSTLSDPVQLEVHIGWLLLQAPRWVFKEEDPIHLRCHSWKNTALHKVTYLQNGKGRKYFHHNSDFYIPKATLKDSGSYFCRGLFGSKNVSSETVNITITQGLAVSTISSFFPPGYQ", "assay": "SPR, FcγRIIIA captured; further: test concentration or dose not given here"}, "cynomolgus monkey FcRn": {"molecular_target": "T2, cynomolgus monkey FcRn (cynomolgus monkey, UniProt Q8SPV9 24-297; Q8SPW0 21-119)", "T2 construct": "bought; also called cynomolgus FcRn", "assay": "SPR pH 6.0, FcRn captured", "protocol": "Samples of purified antibodies comprising variant Fc regions (1 mg/mL in PBS) were diluted with running buffer to 100 μg/mL and were injected for 1 min at 30 μL/min and allowed to disassociate for 2 min. Between each cycle, the chip was regenerated by injection of 10 mM glycine pH 3.0 for 0.5 min at a flow rate of 30 μL/min and recharged with a fresh injection of FcγRI. At the beginning of each experiment, three blank cycles were run, with buffer alone being injected instead of test sample. The average SPR signal (relative to the reference cell) was measured in a window approximately 8 to 13 seconds before the injection of test sample (baseline) and approximately 3 to 8 seconds before the end of injection (response). The response of the third of the blank (buffer) samples was subtracted from the response of each test sample in order to allow for any dissociation of the bound FcγRI giving a corrected response for each test sample. The whole experiment was repeated three times with the test samples being analysed in different orders each time. […] This lot was run at the beginning and end of each experiment as a consistency check.\nAs before the binding responses were corrected by subtraction of the response given by a blank sample consisting of running buffer alone."}, "[2]": {"molecular_target": "T3, Histidine-tagged recombinant human FcγRI (CD64) (human, UniProt P12314 16-288, limits assumed)", "T3 construct": "bought", "assay": "SPR, His-FcγRI captured; Expt 1;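 further: SPR at 25 °C on anti-His antibody chip capturing FcγRI, Fc-variant antibodies injected at 100 µg/mL for 1 min, signal near end of injection minus buffer blank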"}, "[3]": {"molecular_target": "T3, Histidine-tagged recombinant human …", "assay": "SPR, His-FcγRI captured; Expt 2;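 further: biacore T200 SPR at 25 °C, Fc-variant antibodies at 100 µg/mL flowed 1 min over anti-His-captured receptor, signal read near injection end minus third buffer blank; antibody analyte injected at 100 µg/mL for 1 min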", "protocol": "(§1) Binding analysis was carried out by surface plasmon resonance at 25° C. using a Biacore® T200 instrument with Biacore® T200 control software. The sample compartment was held at 5° C. The running buffer (HBS-EP+) consisted of 0.01 M HEPES pH 7.4, containing 0.15 M NaCl, 3 mM EDTA, and 0.05% v/v Surfactant P20. Methods were run using the manufacturer's standard method wizards as described in the Biacore® T200 Instrument Handbook.\n(§2) The cell was activated by treatment with EDC/NHS for 7 min. The antibody was diluted to 10 μg/mL in 10 mM sodium acetate pH 5.0 and injected for 7 min at 5 μL/min. The flow cell was deactivated by injection of 1M ethanolamine for 7 min. This process was repeated in the absence of anti-his antibody on a separate flow cell to generate a reference surface. […] Samples of purified antibodies comprising variant Fc regions (1 mg/mL in PBS) were diluted with running buffer to 100 μg/mL and were injected for 1 min at 30 μL/min and allowed to disassociate for 2 min. Between each cycle, the chip was regenerated by injection of 10 mM glycine pH 3.0 for 0.5 min at a flow rate of 30 μL/min and recharged with a fresh injection of FcγRI. At the beginning of each experiment, three blank cycles were run, with buffer alone being injected instead of test sample. The average SPR signal (relative to the reference cell) was measured in a window approximately 8 to 13 seconds before the injection of test sample (baseline) and approximately 3 to 8 seconds before the end of injection (response). The response of the third of the blank (buffer) samples was subtracted from the response of each test sample in order to allow for any dissociation of the bound FcγRI giving a corrected response for each test sample. The whole experiment was repeated three times with the test samples being analysed in different orders each time."}, "[4]": {"molecular_target": "T3, Histidine-tagged recombinant human …", "assay": "SPR, His-FcγRI captured; Expt 3;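 further: biacore T200 SPR at 25 °C, Fc-variant antibodies at 100 µg/mL flowed 1 min over anti-His-captured FcγRI, signal taken just before injection end minus a buffer blank cycle; antibody analyte injected at 100 µg/mL for 1 min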", "protocol": "as §1, §2"}, "human FcRn [5]": {"molecular_target": "T4, human FcRn (human, UniProt P55899 24-297; P61769 21-119)", "T4 construct": "bought", "T4 sequence (P55899 24-297 limits assumed, chain 1 of 2)": "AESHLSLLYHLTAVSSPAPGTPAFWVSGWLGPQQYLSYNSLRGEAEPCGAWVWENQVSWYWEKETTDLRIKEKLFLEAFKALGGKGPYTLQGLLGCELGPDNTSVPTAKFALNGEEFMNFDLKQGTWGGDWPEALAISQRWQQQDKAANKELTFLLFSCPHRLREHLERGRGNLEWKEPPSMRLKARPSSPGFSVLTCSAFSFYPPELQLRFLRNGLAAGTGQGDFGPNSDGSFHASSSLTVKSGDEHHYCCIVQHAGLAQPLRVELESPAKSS", "T4 sequence (P61769 21-119 limits assumed, chain 2 of 2)": "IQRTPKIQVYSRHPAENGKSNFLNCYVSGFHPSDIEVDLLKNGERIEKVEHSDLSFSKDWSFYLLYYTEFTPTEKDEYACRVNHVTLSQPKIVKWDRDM", "assay": "SPR pH 6.0, FcRn captured; Expt 1"}, "human FcRn [6]": {"molecular_target": "T4, human FcRn", "assay": "SPR pH 6.0, FcRn captured; Expt 2"}, "mouse FcγRI": {"molecular_target": "T5, mouse FcγRI (mouse, UniProt P26151 25-297)", "T5 construct": "bought; captured on anti-histidine chip", "T5 sequence (looked up)": "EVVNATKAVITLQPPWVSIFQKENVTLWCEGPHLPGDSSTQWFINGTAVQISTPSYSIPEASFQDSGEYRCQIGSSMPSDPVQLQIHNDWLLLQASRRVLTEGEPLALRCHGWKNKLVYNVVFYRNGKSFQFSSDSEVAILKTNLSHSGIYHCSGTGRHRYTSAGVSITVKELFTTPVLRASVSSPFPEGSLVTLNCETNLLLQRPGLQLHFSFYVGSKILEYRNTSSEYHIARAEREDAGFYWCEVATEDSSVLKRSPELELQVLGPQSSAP", "assay": "SPR, receptor captured on anti-His chip"}, "rat FcγRI": {"molecular_target": "T6, rat FcγRI (rat, UniProt A0A0B4J2J0 16-285)", "T6 construct": "bought; captured on anti-histidine chip", "T6 sequence": "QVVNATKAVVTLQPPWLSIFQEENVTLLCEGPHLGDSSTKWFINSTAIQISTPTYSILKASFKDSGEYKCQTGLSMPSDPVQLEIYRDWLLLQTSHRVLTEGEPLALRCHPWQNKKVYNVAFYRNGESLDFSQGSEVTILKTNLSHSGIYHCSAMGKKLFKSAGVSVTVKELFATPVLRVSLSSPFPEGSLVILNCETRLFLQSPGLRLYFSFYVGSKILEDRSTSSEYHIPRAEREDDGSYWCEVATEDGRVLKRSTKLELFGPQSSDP", "assay": "SPR, receptor captured on anti-His chip"}, "rabbit FcγRI": {"molecular_target": "T7, rabbit FcγRI (rabbit)", "T7 construct": "bought; captured on anti-histidine chip", "assay": "SPR, receptor captured on anti-His chip"}, "human FcγRIIA (R131)": {"molecular_target": "T8, human FcγRIIA (R131) (human, UniProt P12318 34-218, limits assumed)", "T8 construct": "bought; R131 allele", "T8 sequence (looked up)": "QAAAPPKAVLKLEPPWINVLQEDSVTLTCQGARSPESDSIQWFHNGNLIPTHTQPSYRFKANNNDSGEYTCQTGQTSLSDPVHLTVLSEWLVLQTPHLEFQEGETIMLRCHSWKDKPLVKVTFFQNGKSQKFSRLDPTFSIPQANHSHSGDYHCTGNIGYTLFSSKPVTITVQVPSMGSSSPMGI", "assay": "SPR, receptor captured on anti-His chip"}, "[7]": {"molecular_target": "T9, human FcγRIIIB (NA2 allotype) (human, UniProt O75015 17-200, limits assumed)", "T9 construct": "bought; NA2 allotype", "assay": "SPR, receptor captured on anti-His chip"}, "[8]": {"molecular_target": "T3, Histidine-tagged recombinant human …", "assay": "SPR, receptor captured on anti-His chip"}, "human FcγRIIIA (F158) [9]": {"molecular_target": "T1, human FcγRIIIA (F158)", "assay": "SPR, receptor captured on anti-His chip"}, "[10]": {"molecular_target": "T3, Histidine-tagged recombinant human …", "assay": "SPR, His-FcγRI captured; Expt 1 Rep 1;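 further: antibody analyte injected at 100 µg/mL for 1 min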", "protocol": "(§3) Methods were run using the manufacturer's standard method wizards as described in the Biacore® T200 Instrument Handbook.\n(§4) The cell was activated by treatment with EDC/NHS for 7 min. The antibody was diluted to 10 μg/mL in 10 mM sodium acetate pH 5.0 and injected for 7 min at 5 μL/min. The flow cell was deactivated by injection of 1M ethanolamine for 7 min. This process was repeated in the absence of anti-his antibody on a separate flow cell to generate a reference surface. […] Samples of purified antibodies comprising variant Fc regions (1 mg/mL in PBS) were diluted with running buffer to 100 μg/mL and were injected for 1 min at 30 μL/min and allowed to disassociate for 2 min. Between each cycle, the chip was regenerated by injection of 10 mM glycine pH 3.0 for 0.5 min at a flow rate of 30 μL/min and recharged with a fresh injection of FcγRI. At the beginning of each experiment, three blank cycles were run, with buffer alone being injected instead of test sample. The average SPR signal (relative to the reference cell) was measured in a window approximately 8 to 13 seconds before the injection of test sample (baseline) and approximately 3 to 8 seconds before the end of injection (response). The response of the third of the blank (buffer) samples was subtracted from the response of each test sample in order to allow for any dissociation of the bound FcγRI giving a corrected response for each test sample. The whole experiment was repeated three times with the test samples being analysed in different orders each time. […] This lot was run at the beginning and end of each experiment as a consistency check."}, "[11]": {"molecular_target": "T3, Histidine-tagged recombinant human …", "assay": "SPR, His-FcγRI captured; Expt 1 Rep 2;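 further: antibody analyte injected at 100 µg/mL for 1 min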", "protocol": "as §3, §4"}, "[12]": {"molecular_target": "T3, Histidine-tagged recombinant human …", "assay": "SPR, His-FcγRI captured; Expt 2 Rep 2;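 further: antibody analyte injected at 100 µg/mL for 1 min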", "protocol": "as §3, §4"}}}
{"binder": "anti-CD20 human IgG1 L234Q/L235S/G236R (antibody, also called 2-33; 10.77) heavy: QVQLQQPGAELVKPGASVKMSCKASGYTFTSYNMHWVKQTPGRGLEWIGAIYPGNGDTSYNQKFKGKATLTADKSSSTAYMQLSSLTSEDSAVYYCARSTYYGGDWYFNVWGAGTTVTVSSASTKGPSVFPLAPSSKSTSGGTAALGCLVKDYFPEPVTVSWNSGALTSGVHTFPAVLQSSGLYSLSSVVTVPSSSLGTQTYICNVNHKPSNTKVDKKVEPKSCDKTHTCPPCPAPEQSRGPSVFLFPPKPKDTLMISRTPEVTCVVVDVSHEDPEVKFNWYVDGVEVHNAKTKPREEQYNSTYRVVSVLTVLHQDWLNGKEYKCKVSNKALPAPIEKTISKAKGQPREPQVYTLPPSRDELTKNQVSLTCLVKGFYPSDIAVEWESNGQPENNYKTTPPVLDSDGSFFLYSKLTVDKSRWQQGNVFSCSVMHEALHNHYTQKSLSLSPGK light: QIVLSQSPAILSASPGEKVTMTCRASSSVSYIHWFQQKPGSSPKPWIYATSNLASGVPVRFSGSGSGTSYSLTISRVEAEDAATYYCQQWTSNPPTFGGGTKLEIKRTVAAPSVFIFPPSDEQLKSGTASVVCLLNNFYPREAKVQWKVDNALQSGNSQESVTEQDSKDSTYSLSSTLTLSKADYEKHKVYACEVTHQGLSSPVTKSFNRGEC", "values": [{"measurement": "Corrected response (RU)", "setting": "human FcγRIIIA (F158) [1]", "value": 2.7, "unit": "RU"}, {"measurement": "Corrected response (RU)", "setting": "cynomolgus monkey FcRn", "value": 1170, "unit": "RU"}, {"measurement": "Corrected response (RU)", "setting": "[2]", "value": -1.8, "unit": "RU"}, {"measurement": "Corrected response (RU)", "setting": "[3]", "value": 1.6, "unit": "RU"}, {"measurement": "Corrected response (RU)", "setting": "[4]", "value": 3.8, "unit": "RU"}, {"measurement": "Corrected response (RU)", "setting": "human FcRn [5]", "value": 488, "unit": "RU"}, {"measurement": "Corrected response (RU)", "setting": "human FcRn [6]", "value": 496, "unit": "RU"}, {"measurement": "Corrected response (RU)", "setting": "mouse FcγRI", "value": 0.5, "unit": "RU"}, {"measurement": "Corrected response (RU)", "setting": "rat FcγRI", "value": 0.6, "unit": "RU"}, {"measurement": "Corrected response (RU)", "setting": "rabbit FcγRI", "value": 0.9, "unit": "RU"}, {"measurement": "Corrected response (RU)", "setting": "human FcγRIIA (R131)", "value": 1.8, "unit": "RU"}, {"measurement": "Corrected response (RU)", "setting": "[7]", "value": 2.3, "unit": "RU"}]}
{"binder": "anti-CD20 human IgG1 N297Q (aglycosyl) (antibody, also called 2-67) heavy: not shown light: QIVLSQSPAILSASPGEKVTMTCRASSSVSYIHWFQQKPGSSPKPWIYATSNLASGVPVRFSGSGSGTSYSLTISRVEAEDAATYYCQQWTSNPPTFGGGTKLEIKRTVAAPSVFIFPPSDEQLKSGTASVVCLLNNFYPREAKVQWKVDNALQSGNSQESVTEQDSKDSTYSLSSTLTLSKADYEKHKVYACEVTHQGLSSPVTKSFNRGEC", "values": [{"measurement": "Corrected response (RU)", "setting": "cynomolgus monkey FcRn", "value": 1040, "unit": "RU"}, {"measurement": "Corrected response (RU)", "setting": "human FcRn [5]", "value": 426, "unit": "RU"}, {"measurement": "Corrected response (RU)", "setting": "human FcRn [6]", "value": 430, "unit": "RU"}, {"measurement": "Corrected response (RU)", "setting": "[8]", "value": 578, "unit": "RU"}, {"measurement": "Corrected response (RU)", "setting": "mouse FcγRI", "value": 49.3, "unit": "RU"}, {"measurement": "Corrected response (RU)", "setting": "rat FcγRI", "value": 1470, "unit": "RU"}, {"measurement": "Corrected response (RU)", "setting": "rabbit FcγRI", "value": 410, "unit": "RU"}, {"measurement": "Corrected response (RU)", "setting": "human FcγRIIA (R131)", "value": 9.4, "unit": "RU"}, {"measurement": "Corrected response (RU)", "setting": "human FcγRIIIA (F158) [9]", "value": -1.4, "unit": "RU"}]}
{"binder": "anti-CD20 human IgG1 L235T/G236R (antibody, also called 2-86) heavy: not shown light: QIVLSQSPAILSASPGEKVTMTCRASSSVSYIHWFQQKPGSSPKPWIYATSNLASGVPVRFSGSGSGTSYSLTISRVEAEDAATYYCQQWTSNPPTFGGGTKLEIKRTVAAPSVFIFPPSDEQLKSGTASVVCLLNNFYPREAKVQWKVDNALQSGNSQESVTEQDSKDSTYSLSSTLTLSKADYEKHKVYACEVTHQGLSSPVTKSFNRGEC", "values": [{"measurement": "Corrected response (RU)", "setting": "[10]", "value": -9.4, "unit": "RU"}, {"measurement": "Corrected response (RU)", "setting": "[11]", "value": -10.6, "unit": "RU"}, {"measurement": "Corrected response (RU)", "setting": "[12]", "value": 0, "unit": "RU"}]}
{"binder": "anti-CD20 human IgG1 L234S/L235T (antibody, also called 2-87) heavy: not shown light: QIVLSQSPAILSASPGEKVTMTCRASSSVSYIHWFQQKPGSSPKPWIYATSNLASGVPVRFSGSGSGTSYSLTISRVEAEDAATYYCQQWTSNPPTFGGGTKLEIKRTVAAPSVFIFPPSDEQLKSGTASVVCLLNNFYPREAKVQWKVDNALQSGNSQESVTEQDSKDSTYSLSSTLTLSKADYEKHKVYACEVTHQGLSSPVTKSFNRGEC", "values": [{"measurement": "Corrected response (RU)", "setting": "[10]", "value": 62.9, "unit": "RU"}, {"measurement": "Corrected response (RU)", "setting": "[11]", "value": 54.1, "unit": "RU"}, {"measurement": "Corrected response (RU)", "setting": "[12]", "value": 62.4, "unit": "RU"}]}
